Consider 1 molecule from article doi:10.1101/2020.04.03.024018, “High-affinity agonist binding to C5aR results from a cooperative two-site binding mechanism” (bioRxiv, 2020).

By Kd is commonly meant the constant that tells how readily two partners part at equilibrium.

Common to all, as to conditions: both partners purified
For assay [1], the target named is T1, C5a anaphylatoxin chemotactic receptor 1 (C5aR), wild type (human, UniProt P21730 1-350, sulfonated tyrosines (sulfonation detected by anti-sulfotyrosine Western blot; eliminated by the Y11F and Y14F mutations)).
T1 construct: human G protein-coupled C5a receptor (C5aR), wild type; also called C5aR^WT; wtC5aR; source: HEK-293S GnTI- cells (BacMam), purified (Ni-NTA, anti-Flag M1 resin, SEC), reconstituted in DOPC/CHS liposomes; not shown: His8, C-terminal, kept
T1 sequence (looked up): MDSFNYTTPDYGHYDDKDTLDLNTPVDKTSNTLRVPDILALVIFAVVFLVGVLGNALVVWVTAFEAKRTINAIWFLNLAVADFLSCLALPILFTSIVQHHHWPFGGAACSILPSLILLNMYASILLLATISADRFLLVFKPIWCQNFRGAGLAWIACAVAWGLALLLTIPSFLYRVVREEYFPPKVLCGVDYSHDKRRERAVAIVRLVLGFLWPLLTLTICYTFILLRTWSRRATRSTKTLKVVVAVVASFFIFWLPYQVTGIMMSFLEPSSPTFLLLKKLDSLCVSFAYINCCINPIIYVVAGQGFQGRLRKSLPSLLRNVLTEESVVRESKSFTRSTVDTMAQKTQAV
Description: single-molecule force spectroscopy (force-volume AFM + FD-based AFM); ligand on the AFM tip (PEG27 linker, tris-NTA-Ni2+); receptor in DOPC/CHS liposomes adsorbed on mica; low and high loading rates combined (10^2-10^7 pN/s); Friddle-Noy-de Yoreo fit, Kd calculated from dGbu; 20 mM HEPES, 300 mM NaCl, about 24 °C.

The target in assay [2] is T2, C5aRΔTyr mutant (Y11F and Y14F) (human, UniProt P21730 1-350, Y11F | Y14F).
T2 construct: human C5aR with the two sulfation-site tyrosines changed; A legend and the methods print the second mutation as F14F; also called C5aR-d2Y; source: HEK-293S GnTI- cells (BacMam), purified, reconstituted in DOPC/CHS liposomes
T2 sequence (looked up): T1 sequence (looked up) with Y11F, Y14F
As to the kind of experiment: single-molecule force spectroscopy (FD-based AFM); ligand on the AFM tip (PEG27 linker, tris-NTA-Ni2+); receptor in DOPC/CHS liposomes adsorbed on mica; high loading rates only (10^5-10^7 pN/s); Friddle-Noy-de Yoreo fit, Kd calculated from dGbu; 20 mM HEPES, 300 mM NaCl, about 24 °C.

Assay [3] deals with T1, C5a anaphylatoxin chemotactic receptor …. The assay is described as above.

Substitutions are numbered along the chain they refer to.

B1: complement C5a anaphylatoxin (ligand, UniProt P01031 678-751, looked up)
chain: TLQKKIEEIAAKYKHSVVKKCCYDGACVNNDETCEQRAARISLGPRCIKAFTECCVVASQLRANISHKDMQLGR
notes: C5a anaphylatoxin, 74-aa glycoprotein, cut product of complement C5; C-terminal residue R74; numbers count on: the mature C5a; Held on the AFM tip through a PEG27 linker and tris-NTA-Ni2+; also called C5a ligand; endogenous C5a ligand
As for B1, the dissociation constant (Kd) was ~0.00609 µM in assay [1], ~20000 µM in assay [2] and ~0.001 µM in assay [3].
